# T1: CIRV p19 (Carnation Italian ringspot virus, UniProt Q66104 1-172)
# T1 sequence: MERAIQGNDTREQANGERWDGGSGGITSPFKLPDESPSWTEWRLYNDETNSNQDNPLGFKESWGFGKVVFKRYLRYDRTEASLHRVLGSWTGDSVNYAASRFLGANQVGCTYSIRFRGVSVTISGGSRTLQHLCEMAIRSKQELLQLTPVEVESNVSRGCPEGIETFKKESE
# T2: TAV 2b (Tomato aspermy virus, UniProt Q8UYT3 1-95)
# T2 sequence: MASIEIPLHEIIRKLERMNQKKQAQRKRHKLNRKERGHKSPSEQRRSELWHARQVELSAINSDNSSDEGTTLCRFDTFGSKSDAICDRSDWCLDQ
# B1: miR162-17gU/3*C (dsRNA)
# RNA 1: UCGAUAAACCUCUGCAUCCAG
# RNA 2: GGCUGCAGAGGUUCAUCGAUC
# modifications: 5'-phosphate
# B2: miR162-18gC/2*C (dsRNA)
# RNA 1: UCGAUAAACCUCUGCAUCCAG
# RNA 2: GCAUGCAGAGGUUCAUCGAUC
# modifications: 5'-phosphate
# B3: miR162-10gU/10*G (dsRNA)
# RNA 1: UCGAUAAACUUCUGCAUCCAG
# RNA 2: GGAUGCAGAGGUUCAUCGAUC
# modifications: 5'-phosphate
# B4: AtmiR168a variant 1 (dsRNA)
# RNA 1: UCGCUUGGUGCAGGUCGGGAA
# RNA 2: CCCGCCCUGCAUCAACUGAAU
# modifications: 5'-phosphate
# B5: miR162-10gC/10*C (dsRNA)
# RNA 1: UCGAUAAACCUCUGCAUCCAG
# RNA 2: GGAUGCAGACGUUCAUCGAUC
# modifications: 5'-phosphate
# B6: miR162-0 (dsRNA)
# RNA 1: UCGAUAAACCUCUGCAUCCAG
# RNA 2: GGAUGCAGAGGUUCAUCGAUC
# modifications: 5'-phosphate
# B7: AtmiR168a (dsRNA)
# RNA 1: UCGCUUGGUGCAGGUCGGGAA
# RNA 2: CCCGCCUUGCAUCAACUGAAU
# modifications: 5'-phosphate
# B8: miR162-19gU/1*G (dsRNA)
# RNA 1: UCGAUAAACCUCUGCAUCUAG
# RNA 2: GGAUGCAGAGGUUCAUCGAUC
# modifications: 5'-phosphate
# B9: miR162-12gG/8*G (dsRNA)
# RNA 1: UCGAUAAACCUGUGCAUCCAG
# RNA 2: GGAUGCAGAGGUUCAUCGAUC
# modifications: 5'-phosphate
# B10: miR162-16gU/4*G (dsRNA)
# RNA 1: UCGAUAAACCUCUGCUUCCAG
# RNA 2: GGAGGCAGAGGUUCAUCGAUC
# modifications: 5'-phosphate
# B11: AtmiR168a variant 3 (dsRNA)
# RNA 1: UCGCUUGGUGCAGGUCGGGAA
# RNA 2: CCCGCCCUGCACCAACUGAAU
# modifications: 5'-phosphate
# B12: miR162-14gU/6*G (dsRNA)
# RNA 1: UCGAUAAACCUCUUCAUCCAG
# RNA 2: GGAUGGAGAGGUUCAUCGAUC
# modifications: 5'-phosphate
# B13: miR162-18gU/2*G (dsRNA)
# RNA 1: UCGAUAAACCUCUGCAUUCAG
# RNA 2: GGAUGCAGAGGUUCAUCGAUC
# modifications: 5'-phosphate
# B14: AtmiR168a variant 4 (dsRNA)
# RNA 1: UCGCUUGGUGCAGGUCGGGAA
# RNA 2: CCCGACCUGCAUCAAAUGAAU
# modifications: 5'-phosphate
# B15: AtmiR162 (dsRNA)
# RNA 1: UCGAUAAACCUCUGCAUCCAG
# RNA 2: GGAGGCAGCGGUUCAUCGAUC
# modifications: 5'-phosphate
# B16: miR162-11gU/9*C (dsRNA)
# RNA 1: UCGAUAAACCUCUGCAUCCAG
# RNA 2: GGAUGCAGCGGUUCAUCGAUC
# modifications: 5'-phosphate
# B17: miR162-12gC/8*A (dsRNA)
# RNA 1: UCGAUAAACCUCUGCAUCCAG
# RNA 2: GGAUGCAAAGGUUCAUCGAUC
# modifications: 5'-phosphate
# B18: miR162-14gG/6*U (dsRNA)
# RNA 1: UCGAUAAACCUCUGCAUCCAG
# RNA 2: GGAUGUAGAGGUUCAUCGAUC
# modifications: 5'-phosphate
# B19: miR162-14gG/6*A (dsRNA)
# RNA 1: UCGAUAAACCUCUGCAUCCAG
# RNA 2: GGAUGAAGAGGUUCAUCGAUC
# modifications: 5'-phosphate
# B20: miR162-15gC/5*C (dsRNA)
# RNA 1: UCGAUAAACCUCUGCAUCCAG
# RNA 2: GGAUCCAGAGGUUCAUCGAUC
# modifications: 5'-phosphate
# B21: miR162-17gU/3*G (dsRNA)
# RNA 1: UCGAUAAACCUCUGCAUCCAG
# RNA 2: GGGUGCAGAGGUUCAUCGAUC
# modifications: 5'-phosphate
# B22: AtmiR168a variant 2 (dsRNA)
# RNA 1: UCGCUUGGUGCAGGUCGGGAA
# RNA 2: CCCGCCUUGCACCAACUGAAU
# modifications: 5'-phosphate
# B23: miR162-19gC/1*C (dsRNA)
# RNA 1: UCGAUAAACCUCUGCAUCCAG
# RNA 2: CGAUGCAGAGGUUCAUCGAUC
# modifications: 5'-phosphate
# B24: p19 protein of Carnation Italian ringspot virus (CIRV) (natural protein)
# chain: T1 sequence
# notes: p19 suppressor of RNA silencing, Carnation Italian ringspot virus (Tombusvirus); the p19 ORF cloned into pGEX-6P-1, GST removed with PreScission protease; Residues of the vector may be left at the N-terminus after PreScission cleavage (surmised); also called CIRV p19; p19 wt; source: E. coli BL21 (DE3) RIPL, purified (GSTrap, PreScission cleavage, Resource Q anion exchange)
# B25: miR162-10gC/10*A (dsRNA)
# RNA 1: UCGAUAAACCUCUGCAUCCAG
# RNA 2: GGAUGCAGAAGUUCAUCGAUC
# modifications: 5'-phosphate
# B26: miR162-11gU/9*G (dsRNA)
# RNA 1: UCGAUAAACCUCUGCAUCCAG
# RNA 2: GGAUGCAGGGGUUCAUCGAUC
# modifications: 5'-phosphate
# B27: miR162-13gG/7*U (dsRNA)
# RNA 1: UCGAUAAACCUCGGCAUCCAG
# RNA 2: GGAUGCUGAGGUUCAUCGAUC
# modifications: 5'-phosphate
# B28: miR162-12gU/8*G (dsRNA)
# RNA 1: UCGAUAAACCUUUGCAUCCAG
# RNA 2: GGAUGCAGAGGUUCAUCGAUC
# modifications: 5'-phosphate
# B29: miR162-16gA/4*G (dsRNA)
# RNA 1: UCGAUAAACCUCUGCAUCCAG
# RNA 2: GGAGGCAGAGGUUCAUCGAUC
# modifications: 5'-phosphate
# B30: miR162-12gC/8*C (dsRNA)
# RNA 1: UCGAUAAACCUCUGCAUCCAG
# RNA 2: GGAUGCACAGGUUCAUCGAUC
# modifications: 5'-phosphate
# B31: miR162-12gG/8*U (dsRNA)
# RNA 1: UCGAUAAACCUGUGCAUCCAG
# RNA 2: GGAUGCAUAGGUUCAUCGAUC
# modifications: 5'-phosphate
# B32: gf698 siRNA (dsRNA)
# RNA 1: UAGUUCAUCCAUGCCAUGUGU
# RNA 2: ACAUGGCAUGGAUGAACUAUA
# modifications: 5'-phosphate
# B33: AtmiR168a variant 6 (dsRNA)
# RNA 1: UCGCUUGGUGCAGGUCGGGAA
# RNA 2: CCCGACCUGCACCAAGCGAAU
# modifications: 5'-phosphate
# B34: miR162-15gU/5*G (dsRNA)
# RNA 1: UCGAUAAACCUCUGUAUCCAG
# RNA 2: GGAUGCAGAGGUUCAUCGAUC
# modifications: 5'-phosphate
# B35: miR162-13gU/7*G (dsRNA)
# RNA 1: UCGAUAAACCUCUGCAUCCAG
# RNA 2: GGAUGCGGAGGUUCAUCGAUC
# modifications: 5'-phosphate
# B36: miR162-13gU/7*C (dsRNA)
# RNA 1: UCGAUAAACCUCUGCAUCCAG
# RNA 2: GGAUGCCGAGGUUCAUCGAUC
# modifications: 5'-phosphate
# B37: AtmiR168a variant 5 (dsRNA)
# RNA 1: UCGCUUGGUGCAGGUCGGGAA
# RNA 2: CCCGACUUGCACCAAGUGAAU
# modifications: 5'-phosphate
# Experiments:
# CIRV p19 = target: T1, CIRV p19; experiment: EMSA; details: protein: recombinant, tags: GST tag removed (PreScission, pGEX-6P-1), chain copies: 2, label: 5'-32P, 3' overhangs 2 nt
# TAV 2b [1] = target: T2, TAV 2b; experiment: competition; Kc vs labeled gf698; details: protein: recombinant, tags: His-SUMO removed, chain copies: 2, label: 5'-32P, 3' overhangs 2 nt
# [2] = target: the molecule itself; experiment: AUC; analytical ultracentrifugation at protein concentrations of 1.2-13 uM (CIRV p19); data not shown; procedure as in ref. 36
# TAV 2b [3] = target: T2, TAV 2b; experiment: EMSA; details: protein: recombinant; tags: His-SUMO removed; chain copies: 2; label: 5'-32P; 3' overhangs 2 nt
binder,measurement,setting,value
B1,Kd,CIRV p19; C/U mismatch,0.3 ± 0.17 nM
B2,Kd,CIRV p19; C/C mismatch,0.12 ± 0.08 nM
B3,Kd,CIRV p19; G-U wobble,0.63 ± 0.21 nM
B4,Kd,CIRV p19; mismatches and G-U wobbles,3.13 ± 1.67 nM
B5,Kd,CIRV p19; C/C mismatch,1.73 ± 0.57 nM
B6,Kd,CIRV p19,0.15 ± 0.06 nM
B7,Ki,TAV 2b [1]; mismatches and G-U wobbles,12.1 ± 0.7 nM
same,Kd,CIRV p19; mismatches and G-U wobbles,2.49 ± 0.88 nM
B8,Kd,CIRV p19; G-U wobble,0.15 ± 0.12 nM
B9,Kd,CIRV p19; G/G mismatch,0.07 ± 0.04 nM
B10,Kd,CIRV p19; G-U wobble,0.17 ± 0.05 nM
B11,Ki,TAV 2b [1]; mismatches,2.2 ± 0.4 nM
same,Kd,CIRV p19; mismatches,1 ± 0.24 nM
B12,Kd,CIRV p19; G-U wobble,0.45 ± 0.08 nM
B13,Kd,CIRV p19; G-U wobble,0.13 ± 0.03 nM
B14,Kd,CIRV p19; G-U wobbles,2.65 ± 0.49 nM
B15,Ki,TAV 2b [1]; mismatches,0.67 ± 0.09 nM
same,Kd,CIRV p19; mismatches,0.06 ± 0.02 nM
B16,Kd,CIRV p19; C/U mismatch,0.22 ± 0.03 nM
B17,Kd,CIRV p19; A/C mismatch,0.16 ± 0.03 nM
B18,Kd,CIRV p19; U-G wobble,0.15 ± 0.09 nM
B19,Kd,CIRV p19; A/G mismatch,0.86 ± 0.49 nM
B20,Kd,CIRV p19; C/C mismatch,0.23 ± 0.08 nM
B21,Kd,CIRV p19; G-U wobble,0.09 ± 0.04 nM
B22,Ki,TAV 2b [1]; mismatches and G-U wobbles,1.1 ± 0.2 nM
same,Kd,CIRV p19; mismatches and G-U wobbles,0.71 ± 0.28 nM
B23,Kd,CIRV p19; C/C mismatch,0.34 ± 0.15 nM
B24,stoichiometry N,[2],2
B25,Kd,CIRV p19; A/C mismatch,0.35 ± 0.24 nM
B26,Kd,CIRV p19; G-U wobble,0.14 ± 0.12 nM
B27,Kd,CIRV p19; U-G wobble,1.53 ± 0.49 nM
B28,Kd,CIRV p19; G-U wobble,1.93 ± 0.13 nM
B29,Kd,CIRV p19; G/A mismatch,0.38 ± 0.13 nM
B30,Kd,CIRV p19; C/C mismatch,0.28 ± 0.24 nM
B31,Kd,CIRV p19; U-G wobble,0.31 ± 0.08 nM
B32,Ki,TAV 2b [1],0.53 ± 0.08 nM
same,Kd,TAV 2b [3],0.68 ± 0.15 nM
same,Kd,CIRV p19,0.06 ± 0.04 nM
B33,Ki,TAV 2b [1],0.38 ± 0.05 nM
same,Kd,CIRV p19,0.34 ± 0.16 nM
B34,Kd,CIRV p19; G-U wobble,0.1 ± 0.01 nM
B35,Kd,CIRV p19; G-U wobble,1.82 ± 0.38 nM
B36,Kd,CIRV p19; C/U mismatch,1.01 ± 0.1 nM
B37,Ki,TAV 2b [1]; G-U wobbles,1.4 ± 0.2 nM
same,Kd,CIRV p19; G-U wobbles,0.48 ± 0.17 nM

# From paper PMC9103804, “RNA and Protein Determinants Mediate Differential Binding of miRNAs by a Viral Suppressor of RNA Silencing Thus Modulating Antiviral Immune Responses in Plants” (International Journal of Molecular Sciences, 2022)
